Reference: the supplement of paper PMC10126150
± gives the standard deviation of the averaged measurements.

The sequences below were run on ATP (assay: switch fluorescence ratio, 500 uM ATP over buffer (Cy3 cluster intensity, sum of 5 cycles each) (fold (ratio)); higher = stronger signal-on switching upon ATP binding; sequences stand for … in TCGTCGGCAGCGTCAGATGTGTATAAGAGACAGTTTTTTTTTTTTTTTTTTTTTTTTT…TC). Details: aptamer strand: ATP DNA aptamer (quencher-CACCTGGGGGAGTATTGCGGAGGAAGG + anchor), 100 nM annealed; ATP concentration: 500 uM.
Summary of the method: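 Exposure to 500 uM ATP lasted 15 min at 22 °C before imaging, and a selection-buffer image was taken beforehand, for Cy3-labelled switching-strand clusters on a modified Illumina MiSeq flow-cell annealed to 100 nM quencher-labelled ATP aptamer. Five buffer/ATP cycles were run with NaOH stripping and re-annealing between them. The fluorescence ratio per cluster is summed target-cycle over summed buffer-cycle Cy3 intensity, averaged per switch-domain sequence. Clusters outside 100-1000 RFU were excluded.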
ATAATGTCGC gave a switch fluorescence ratio of 0.9702 ± 0.0012.
ATACCAATGA gave a switch fluorescence ratio of 1.05 ± 0.029.
For TCTTACTGGG, the switch fluorescence ratio was 0.997 ± 0.018.
TGGGGAGGTT was tested, and the switch fluorescence ratio was 0.97 ± 0.044.
TACCTGCGAA showed a switch fluorescence ratio of 2.07 ± 1.3.
TGGGGCTGCC was tested, and the switch fluorescence ratio was 0.969 ± 0.039.
In the case of GGGTCAGGGC, the switch fluorescence ratio is reported as 1.06 ± 0.062.
For CGGAAAAATT, the switch fluorescence ratio was 1.04 ± 0.12.
With TTACAATATT the switch fluorescence ratio was 1.07 ± 0.03.
With TAGGTTAGTG the switch fluorescence ratio was 0.951 ± 0.01.
With TACAAAAAAT the switch fluorescence ratio was 1.03 ± 0.047.
TAATAATGGG was tested, and the switch fluorescence ratio was 1.02 ± 0.042.
ATGAAGTCGC gave a switch fluorescence ratio of 1.01 ± 0.025.
With TTAGGGTCAG the switch fluorescence ratio was 0.997 ± 0.035.
In the case of GTGTGAACGG, the switch fluorescence ratio is reported as 0.958 ± 0.018.
In the case of AGCCTGTATG, the switch fluorescence ratio is reported as 0.9542 ± 0.0046.
CATTTATTCT was tested, and the switch fluorescence ratio was 0.9615 ± 0.0021.
With GTGCAAATTG the switch fluorescence ratio was 0.997 ± 0.024.
Sequence TTTCCGCTTA has a switch fluorescence ratio of 3.67 ± 1.7.
AAGTTGATGT showed a switch fluorescence ratio of 1 ± 0.017.
ATATCGGATG showed a switch fluorescence ratio of 1.071 ± 0.0078.
In the case of ATGTCATGCG, the switch fluorescence ratio is reported as 1.02 ± 0.045.
CGATGGCGGG was tested, and the switch fluorescence ratio was 1.02 ± 0.071.
Sequence GCTACGGGTA has a switch fluorescence ratio of 1.08 ± 0.031.
GCAAGTTACG was tested, and the switch fluorescence ratio was 1.14 ± 0.041.
Sequence GTTAGAGCGG has a switch fluorescence ratio of 1.02 ± 0.031.
TGGCTTTGGT was tested, and the switch fluorescence ratio was 0.9862 ± 0.0046.
Work on AGTGGGGGTT yielded a switch fluorescence ratio of 0.983 ± 0.019.
ATGGTGAGGG was tested, and the switch fluorescence ratio was 0.962 ± 0.011.
Work on AGGGATGGTA yielded a switch fluorescence ratio of 1.006 ± 0.0083.
TTGCCAAGGT gave a switch fluorescence ratio of 1 ± 0.013.
AACGGGAGAC showed a switch fluorescence ratio of 2.52 ± 0.24.
With GGGTTAATGC the switch fluorescence ratio was 1.03 ± 0.047.
For TTATCGGGAG, the switch fluorescence ratio was 0.9964 ± 0.0019.
Sequence TGAAGTATAG has a switch fluorescence ratio of 0.9901 ± 0.005.
In the case of GCGAGTGCGG, the switch fluorescence ratio is reported as 1.02 ± 0.018.
CCCAATTTTG showed a switch fluorescence ratio of 1.05 ± 0.069.
In the case of GTAGGAGGGG, the switch fluorescence ratio is reported as 0.985 ± 0.011.
Sequence ATGGGGGAGG has a switch fluorescence ratio of 1.009 ± 0.0031.
In the case of AATATACGT, the switch fluorescence ratio is reported as 1.05 ± 0.032.
Work on ATATGCTGTA yielded a switch fluorescence ratio of 0.989 ± 0.032.
Work on GGAGCCGGGC yielded a switch fluorescence ratio of 1.01 ± 0.013.
With ACGATGCGGG the switch fluorescence ratio was 1.09 ± 0.025.
For AATATGTTTT, the switch fluorescence ratio was 1.01 ± 0.026.
For GCGGATAGAA, the switch fluorescence ratio was 1.04 ± 0.017.
TTAGGGAA gave a switch fluorescence ratio of 1.01 ± 0.023.
Sequence AATAAATTGA has a switch fluorescence ratio of 1.02 ± 0.04.
TAAAAAGTGG gave a switch fluorescence ratio of 0.976 ± 0.038.
CTCTAACGG was tested, and the switch fluorescence ratio was 0.982 ± 0.089.
For GGCGTATATG, the switch fluorescence ratio was 0.973 ± 0.027.
With TCGGGGTTA the switch fluorescence ratio was 0.979 ± 0.029.
GTTGGGTGGT showed a switch fluorescence ratio of 0.968 ± 0.01.
With GAGGTTTGCG the switch fluorescence ratio was 0.965 ± 0.028.
TTCAGCCGAG was tested, and the switch fluorescence ratio was 1.02 ± 0.014.
TTGACACTCG gave a switch fluorescence ratio of 0.98 ± 0.021.
AGGTACAGGG showed a switch fluorescence ratio of 1.01 ± 0.041.
For GGGGCTAGTA, the switch fluorescence ratio was 0.991 ± 0.035.
Sequence TGAAAAGGGG has a switch fluorescence ratio of 0.998 ± 0.052.
For TATAATTCTG, the switch fluorescence ratio was 1.04 ± 0.029.
GTATAAGGGT was tested, and the switch fluorescence ratio was 1.01 ± 0.018.
Work on GGTTAACGTC yielded a switch fluorescence ratio of 1.03 ± 0.15.
In the case of GATAAGTATG, the switch fluorescence ratio is reported as 0.975 ± 0.015.
With GGTTAAGCCT the switch fluorescence ratio was 1.05 ± 0.043.
TTTCAGGGGA gave a switch fluorescence ratio of 1.19 ± 0.32.
TGAATATTTT showed a switch fluorescence ratio of 0.9787 ± 0.0076.
For GATTCAGTAC, the switch fluorescence ratio was 1.61 ± 0.056.
For TCCCGGTTTG, the switch fluorescence ratio was 1.009 ± 0.01.
ACACGGGATG gave a switch fluorescence ratio of 1.06 ± 0.077.
In the case of TCGGACGTCG, the switch fluorescence ratio is reported as 1.07 ± 0.019.
Work on TTTGTGATCA yielded a switch fluorescence ratio of 0.998 ± 0.032.
With AGACGGGCAC the switch fluorescence ratio was 1.074 ± 0.0063.
GCGCGTGCAC showed a switch fluorescence ratio of 0.988 ± 0.042.
In the case of GTGGGAAGGG, the switch fluorescence ratio is reported as 0.996 ± 0.017.
For GACGTTGTGG, the switch fluorescence ratio was 1.03 ± 0.014.
In the case of GCGACAGATG, the switch fluorescence ratio is reported as 1.01 ± 0.027.
TTTTCTGGAA showed a switch fluorescence ratio of 1.01 ± 0.029.
With GTTTTCGGCG the switch fluorescence ratio was 0.981 ± 0.035.
In the case of TAAAGCGCGG, the switch fluorescence ratio is reported as 1.074 ± 0.0037.
CCTGTAATTG showed a switch fluorescence ratio of 1.03 ± 0.031.
ATGAGGCCTT gave a switch fluorescence ratio of 1.01 ± 0.019.
TAATGCCTGC showed a switch fluorescence ratio of 1 ± 0.093.
In the case of AGTCACGTAG, the switch fluorescence ratio is reported as 1.03 ± 0.019.
TACATCGTCC was tested, and the switch fluorescence ratio was 1.05 ± 0.024.
Work on TTTGGGGGCG yielded a switch fluorescence ratio of 0.983 ± 0.081.
Work on AAACCGATGG yielded a switch fluorescence ratio of 1.046 ± 0.0085.
